Patent publication US20210388096A1 (Astellas, published 2021)

T1: human Fn14-human Fc fusion protein (human, UniProt Q9NP84 28-79)
T1 construct: range 1-79; Purified from CHO-K1SV culture supernatant; coated on the ELISA plate
T1 sequence: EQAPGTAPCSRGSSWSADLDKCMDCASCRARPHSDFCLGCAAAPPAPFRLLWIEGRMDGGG

T2: human Fn14 on cells (NFkB/HEK293 reporter cells, A375 cells) (human, UniProt Q9NP84 28-129)
T2 sequence (looked up): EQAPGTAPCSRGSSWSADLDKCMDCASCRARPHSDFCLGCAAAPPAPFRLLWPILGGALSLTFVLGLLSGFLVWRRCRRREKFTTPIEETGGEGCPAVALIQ


Tests used:
[1] = target: T1, human Fn14-human Fc fusion protein; experiment: ELISA, Fn14-Fc fusion coated on plate, HRP anti-mouse kappa detection
Experimental: (§1) Binding activities of 4-1h and 4-1m acquired in Example 4 to a Fn14 protein were evaluated. The human Fn14-human Fc fusion protein and the mouse Fn14-mouse Fc fusion protein acquired in Example 1 were diluted in phosphate buffered saline (PBS) at 1 μg/mL and added to a MaxiSorp 384-well transparent plate (Nunc, 464718) at 15 μL/well. Incubation was performed overnight at 4° C. for Immobilization. On the next day, the solid phase liquid was removed, and washing was performed with a 0.05% Tween-20-containing Tris-buffered saline (TBS-T). PBS containing 20% Blocking One (Nacalai tesque, Inc., 03953-95) was added thereto at […]. The resultant was left at room temperature for 1 hour, and then washed with TBS-T. A dilution series of 4-1h or 4-1m acquired in Example 4 was prepared by dilution in 12 steps with a 4-fold common ratio from a maximum concentration of 30 μg/mL using TBS-T containing 5% Blocking One (hereinafter, referred to as a diluent), and added at 20 μL/well. […] Then, the reaction was stopped by adding a 2M sulfuric acid, and the absorbance at 450 nm was measured with SpectraMax Paradigm (Molecular Devices, LLC). The test was performed in duplicate, and EC₅₀ values were calculated by 4-parameter logistic curve fitting.

[2] = target: T3, mouse Fn14-mouse Fc fusion protein (mouse, UniProt Q9CR75 28-75); experiment: as above
T3 construct: range 1-75; Fn14 part cloned via EcoRI/EcoRV into the multicloning site of pFUSE-mIgG2B-Fc1; not shown: mouse Fc region: mIgG2B-Fc region of vector pFUSE-mIgG2B-Fc1 (InvivoGen)
T3 sequence (Q9CR75 28-75 limits assumed): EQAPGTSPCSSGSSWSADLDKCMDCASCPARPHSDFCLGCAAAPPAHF
Experimental: as §1

[3] = target: T2, human Fn14 on cells (NFkB/HEK293 …); experiment: cell-based or functional assay
[4] = target: T1, human Fn14-human Fc fusion protein; experiment: ELISA, Fn14-Fc fusion coated on plate, HRP anti-human kappa detection
Experimental: as §1

[5] = target: T3, mouse Fn14-mouse Fc fusion protein; experiment: as above
Experimental: as §1

| EC50 [1] [µg/mL] | EC50 [2] [µg/mL] | IC50 (ng/mL), inhibition of Tweak-induced NFkB activation (luciferase reporter, NFkB/HEK293 cells), geometric mean of three trials [3] [ng/mL] | EC50 [4] [µg/mL] | EC50 [5] [µg/mL] | Binder |
| --- | --- | --- | --- | --- | --- |
| 0.0182 | 0.0165 |  |  |  | murinized anti-human Fn14 antibody 4-1m (antibody, mouse IgG2a, kappa, V domains shown, Framework regions of 4-1h partially substituted with mouse FR; mouse kappa light chain; also called murinized antibody of 4-1h) VH: DVQLQESGPGLVKPSQSLSLTCAVYGGSFSGYYWSWIRQFPGNKLEWMGEINHRGSTNSNPSLKSRISITVDTSKNQFFLQLNSVTTEDTATYYCAREGISGSMGIYDYSGMDVWGQGTLVTVSA VL: DIVMSQSPSSLAVSVGEKVTMSCKSRQSILYSSNNKNYLTWYQQKPGQSPKLLIYWASTRESGVPDRFTGSGSGTDFTLTISSVKAEDLAVYYCQQYYSTPYTFGSGTKLEIKR |
|  |  | 41.5 | 0.0304 | 0.0232 | fully humanized anti-human Fn14 antibody 4-1h (antibody, human IgG1, kappa, L234A L235A, V domains shown, most of the purified antibodies had pyroglutamylation at the N terminal of the heavy chain and deletion of lysine at the C terminal (Example 5), human kappa light chain; Expressed in CHO-K1SV cells; also called fully humanized antibody of 4-1) VH: QVQLQQWGAGLLKPSETLSLTCAVYGGSFSGYYWSWIRQPPGKGLEWIGEINHRGSTNSNPSLKSRDTISVDTSKNQFSLRLRSVTAADTAVYYCAREGISGSMGIYDYSGMDVWGQGTTVTVSS VL: not shown |
